The series can be described thus: yeast display, Sf9 membrane polyspecificity reagent, FACS + sequencing; frameworks hold sequencing errors. In outline:
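Polyreactivity labels are assigned by the sorting gate from which each nanobody was recovered. The gates were low and high (top ~1%), set on anti-HA fluorescence for expression and streptavidin fluorescence for reagent binding. Before sorting, galactose-induced (36–48 hours) yeast display cells were stained for 1 hour at 4 °C with 10% biotinylated, detergent-solubilized Sf9 membrane reagent.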
On to “QVQLVESGGGLVQAGGCLRLSCAASGRTFYRNVMGWYRQAPGKEREWVGAISSRGGSTYYADSVKGRFTISRDNAKNTVYLQMNSLKPEDTAVYYCAAEGTYYGSDYWGQGTQVTVSS”, for which the “polyreactivity (PSR sort gate)” value is given as “high polyreactivity”.

Consider “QVQLVESGGGLVQAGGCLRLSCAASGSTFPRNAMGWYRQAPGKERELVATITSSGGGTYYADSVKGRFTISRDNAKNTVYLQMNILKPEDTAVYYCNADGPAGDAFDYCGQGTQVTVSS”, for which the “polyreactivity (PSR sort gate)” value was “low polyreactivity”.

Consider “QVQLVESGGGLVQAGGCLRLSCAASGSTFRYYAMGWYRQAPGKERELVAAIYGGGTTYYADSVKGRFTISRDNAKNTVYLQLNSLKPEDTAVYYCAASILFSYYGRDDYWGQGTQVTVSS”, for which the “polyreactivity (PSR sort gate)” value was “low polyreactivity”.

As for “QVQLVESGGGLVQAGGCLRLSCAASGSTFYVYDMGWYRQAPGKERELVAAMSKRRGTTYYADSVKGRFTISRDNAKNTVYLQMNSLKPEDTAVYYCAAVFRSPSAGYQGGYWGQGSQVTVSS”, the “polyreactivity (PSR sort gate)” value is “high polyreactivity”.

Take “QVQLVESGGGLVQAGGFLRLSCASSGSTFIYYAMGWYREAPGKERELVAAISWSGGRTYYADAVKGRFTISRDNAKNTVYLQMTSLKPEDTAVDYCAAESYYSDGYPGVDYWGQATQVTVSS”: the “polyreactivity (PSR sort gate)” value is reported as “high polyreactivity”.

As to “QVQLVESGGGLVQAGGGRRGSGAAAGSIFAWYAMGWYRQAPGTERELVATITWSGGSTYYADSVKGRFTISRDIAKNTVYLQMNSLKREDTAVYYCAAEVVGIWYDLWYQGDYWGQGTQVTVSS”, the “polyreactivity (PSR sort gate)” value is on record as “low polyreactivity”.

Regarding “QVQLVESGGGLVQAGGILRISCAASGRTFASNAMGWYRRAPGKERELVAAMSSSGGRTYYADSVKGRITISRDNAKNTVYLQMNSLKPEYTPVFYCAKVGPVYKYDYWGQGTQVTVSS”, the “polyreactivity (PSR sort gate)” value is given as “high polyreactivity”.

Turning to “QVQLVESGGGLVQAGGILRLICAASGITFVSYGMVWYRQAPRKERELVAAITRSGGSTYYADSVKGRFTISRDNAKNTVYLQMNSLKPDDTAVYYCNARTRYASKGGGARWDSYGYWGQGTQVTVSS”, the “polyreactivity (PSR sort gate)” value was “high polyreactivity”.

Turning to “QVQLVESGGGLVQAGGILRLICAASGRTFRYNAMGWYIQAPGKERELVASINSRGDSTYYADSVKGRFTISRDNAKNTVYLQMNSLKPEDTAVYYCNKRIGVGAYYVRYGYWGQGTQVTVSS”, the “polyreactivity (PSR sort gate)” value is given as “high polyreactivity”.

For “QVQLVESGGGLVQAGGILRLICDASGFIIGYYAMGWYRQAPGKERELVAAISKSGGRTRYADSVKGRFTISRDNAKNTVYLQMNSLKPEDTAVYYCATYDPARSTQGYDYWGQGTQVTVSS”, the “polyreactivity (PSR sort gate)” value is “high polyreactivity”.

With “QVQLVESGGGLVQAGGILRLSAASGSTLAGNTMGWYRQAPGKERELVAAINDSGGSTYYADSVKGRFTISRDNAKNTVYLQMNSLKPEDTAVYYCNADGSAYIEDGYDYWGQGTQVTVSS”, the “polyreactivity (PSR sort gate)” value was “low polyreactivity”.

As to “QVQLVESGGGLVQAGGILRLSCAAAGGTLYYYMGWYRQAPGKESEFVAAINIRGDSTYYADSVKGRFTISRDNAKNTVYLQMNSLKPEDTAVYYCAADLPRRSAHYYYWGQGTLVTVSS”, the “polyreactivity (PSR sort gate)” value is on record as “low polyreactivity”.

Take “QVQLVESGGGLVQAGGILRLSCAASGFIFAYYAMGWYRQAPGKERELVAAITRRGGSTSYADSVKGRFTISRDNAKNTVYLQMNSLKPEDTAVYYCNAVSKYDYGYWGQGTQVTVSS”: the “polyreactivity (PSR sort gate)” value was “high polyreactivity”.

Take “QVQLVESGGGLVQAGGILRLSCAASGFIFRRYAMGWYRQEPGKERELVAAINYSGGSTYYADSVKGRFTISRDNAKNTVYLKMNSLKPEDTAVYYCAAGSRRGIDPGSDYWGQGNQVTVSS”: the “polyreactivity (PSR sort gate)” value is “low polyreactivity”.

On to “QVQLVESGGGLVQAGGILRLSCAASGFIFVRYAMGWYRQAPGKERELVAAISWRGGSTYYADSVKGRFTISRDNAKNTVYLQMNSLKPEDTAVFYCSAVTWVHRYSRFHPFVAFDYWGQGTQVTVSS”, for which the “polyreactivity (PSR sort gate)” value was “high polyreactivity”.

Consider “QVQLVESGGGLVQAGGILRLSCAASGFTFTRNAKGRYRQAPGKERELVAAISSGGRTYYADSVKGRFTISRDNAKNTVYLQMNSLKPEDTAVYYCPTTIWGPVEGYDYWGQGTQETVSS”, for which the “polyreactivity (PSR sort gate)” value was “high polyreactivity”.

These data come from the nanobody polyreactivity screen of Harvey et al. (2022).
